Test results taken from the DeepSol protein solubility set.

Test: soluble on expression in E. coli; label from the status in PepcDB or PDB records

| Sequence | soluble on expression in E. coli |
| --- | --- |
| MKKKILKVATALTIMGGVAFSAEGATAKAELAAKPQQASQAIFKDVPAGHWSYEAIQTLAEQEIMLGYGNGVFGFGHNVTREQVAALIYRALDLDEEFGEDEELESPYNDIVDDNSTMFPFEVLAVTELGIFTGDEKGNFRPKDTLTRAEMAQVLTRAFGLQVQGLAGFKDVPKGHWAENAINAVGSNGISVGDGNGNFAPNMKVTREQYAQFLFRAL | not soluble |
| MTKSVDTLLIPGPIILSGAVQKALDVPSLGHTSPEFVSIFQRVLKNTRAVFKSAAASKSQPFVLAGSGTLGWDIFASNFILSKAPNKNVLVVSTGTFSDRFADCLRSYGAQVDVVRPLKIGESVPLELITEKLSQNSYGAVTVTHVDTSTAVLSDLKAISQAIKQTSPETFFVVDAVCSIGCEEFEFDEWGVDFALTASQKAIGAPAGLSISLCSSRFMDYALNDSKNGHVHGYFSSLRRWTPIMENYEAGKGAYFATPPVQLINSLDVALKEILEEGLHKRWDLHREMSDWFKDSLVNGLQLTSVSRYPSNMSAHGLTAVYVADPPDVIAFLKSHGVVIAGGIHKDIGPKYIRIGHMGVTACNKNLPYMKNCFDLIKLALQRKK | soluble |
| VAWFTDEEGGRGRIEAGQLADLVVPDKDFFSCPEDDISFLVSELTMVGGRIVYAAGGFAALDDNPLPPAMPDWSPARTFKGYAAWGDPDGAGRHSLQRRAVAACGCANACGLHGHQHARAWGTALPVSDAKGFFGALGCSCWA | not soluble |
| MSLGGDQAAGAVLPVTIFTARKFITMERGAPEATAVAVAGKRIVAAGSLAEVKTAVGSRPFTLDETFASKIVMPGLIDQHLHPVLGALTLAVEVIAPEDWVLPGGTHKAAGSADAYQARLKAADAKLDKPDAWLLTWGYHALWHGKLDRAALDAINPTRPIAVWHRSCHEFYLNTPALAALGISEAMTQNQGQASEQSNWREGHFWEGGLNLMMTPMLKVLATPERLAFGLKQMVSYLHANGVTAYMEPGALYTPDMWKLYEQILGAPETPMYATFIADGRGIVDRVGLDGALDAVEQQIAVAPEAPGRKLMFFPGQIKLFADGAIISQLMQMKDGYLDGHQGEWIIPPDELERRARLFWNAGYQIHTHVNGDLGLEKLLDILEKLNAEHPRPDHRSVIVHFANSTEDQVARIKRLGALVSANPYYTTGFADKYSAVGLGPERADAMVRAKSVLDQGVPLSYHSDLPMAPSAPLYLAWCGVNRLTPSGRVAGPEQRVSVDAALRAITIEAAYSWRHEDQLGSIAPGKIANFTVLEQDPYAVPPEQLKDVPIWGTVFEGRVFPVGREGHHHHHH | soluble |
| MSLRDEQEIYNLVLNIANQDKRIEAVLLNGSRANPNVPKDDFQDYDIVFVTNFIEDIISDTNYHKKFGDILIMQKPNEFRNKTEYNCFAYLMQFQDLTRIDLRLIKPEFLEDYLDDAFSKVLLDKKNKYLDYNFERSSLYETKQLSEDEINKILNEIYWVSTYVVKGIARNDIIYSEFMISNPIKNAFIKLLKQKILIEKELDSLSFGKLDKDILQYITDKDQLLKIFSNKSLKDIEANLRFLLDETNQMAKYISINRKLNLNQGEYQSAMKFMNIFLSNSYQNFNEGHHHHHH | soluble |
| MSRPQFTSLRLSLLALAVSATLPTFAFATETMTVTATGNARSSFEAPMMVSVIDTSAPENQTATSATDLLRHVPGITLDGTGRTNGQDVNMRGYDHRGVLVLVDGVRQGTDTGHLNGTFLDPALIKRVEIVRGPSALLYGSGALGGVISYDTVDAKDLLQEGQSSGFRVFGTGGTGDHSLGLGASAFGRTENLDGIVAWSSRDRGDLRQSNGETAPNDESINNMLAKGTWQIDSAQSLSGLVRYYNNDAREPKNPQTVGASESSNPMVDRSTIQRDAQLSYKLAPQGNDWLNADAKIYWSEVRINAQNTGSSGEYREQITKGARLENRSTLFADSFASHLLTYGGEYYRQEQHPGGATTGFPQAKIDFSSGWLQDEITLRDLPITLLGGTRYDSYRGSSDGYKDVDADKWSSRAGMTINPTNWLMLFGSYAQAFRAPTMGEMYNDSKHFSIGRFYTNYWVPNPNLRPETNETQEYGFGLRFDDLMLSNDALEFKASYFDTKAKDYISTTVDFAAATTMSYNVPNAKIWGWDVMTKYTTDLFSLDVAYNRTRGKDTDTGEYISSINPDTVTSTLNIPIAHSGFSVGWVGTFADRSTHISSSYSKQPGYGVNDFYVSYQGQQALKGMTTTLVLGNAFDKEYWSPQGIPQDGRNGKIFVSYQW | not soluble |
| NKFNTWNDSRGNYWSDYEGSDENGDGIGDSAYAVNPEAGSMDYMPLMEYLHSSPVLPTARFTSDITEGFAPLSVRFKDFSENATSRLWMFGDGNTSDSPSPLHTFFNEGEYIVSLIVSNENDSDSASVTIRA | soluble |
| MAHHHHHHMIGLKSMAGVRDVVRGGSWPARLLDMFTSRAAQESFEFEAVVTDACAAANVPVPSEADLPHARWWKKLCRACQDKAGTTKHGSQLLRSRLTNALTQRLAVEEVYRLNGGEIAKEPAVENPIVIMGLPRSNGHMAAHVLARSGLFLTPRQCDTLSPSLLLDVERRDAFRKKFRGFSYLHPDFLCVRVPQADQVDDDLTLHLMTPQSYAWGLLHGLDEYLLECLEEDQLPVYSEVRRVMELLQWYRKCGHFSEPVTREFNPIDNAMELQAYGTKNVLLRPQWLLYSPFAILSPDAVNTAFPKMKAIWVHRALSQCLPSLCSALCLHNTLYTGKPPSDSQLASMGEKVLGIFGSGTAYAIEYYGKFDQRRMAHWSNRDVKRHATRVATKTLDYFSVELDRYRRMQMISGQTEYVSVSRPLHDAQMPYFCLHDGIIGDVFQDYIYQFAEFAFEKKFGITVKEYTPLAAPADAMAMRGIAHGSSEPRSAPALGAGQPMVGHFQQERRGFR | not soluble |
| MNQYLAVTSNGMENLLVEELTKLGIENAKPVQAGVKFKATNEQIYRCCLWSRLASRFVRVLSEFTCNDDMDLYLSTSSINWVNQFHSSKRFVVDFNGTNREIRNSQYGAMKVKDGIVDCFEKKGLPRPNISKERPDIRVHVRLHKDKAILGVDMVGSGLHQRGYRPESGRAPLRETLAAAIIMRCGWDGHQPLLDPMCGSGTLLIEAAMMAANMAPGVKRKQWCFESLEDFEPDTWAEIKSEANVQARRGVKKVDAKFFGFDNDPKVLKVAQENARRAGVEELIEFAQGDVATITRLSGFENGVIVSNPPYGERLGTEPGLIALYTAFGGQLKAEFGGCKASIFSSSDELLSCLRMRADKQFKLNNGALPCHQKNYSIAERSADEVKGADTNTQIAPDFSNRLKKNIGKIGKWARKEKLDCYRIYDADLPEYNVAIDVYGDQIVIQEYAAPKNIPEEKAKRRLTDIIRATIQVTGVEANKVVLKVREKQKGRSQYQK | not soluble |
| GMTAPTLSRAAMEKVIRTYYDGCNEADEAKMIACFVPEAVHYFPAGMYGGAFRGAAQIAHRWRTAVETLGSYWTIDALVIDAETAEAAIEWTHFKTNQDKVLRGAECVEFDRASGLIREIRAFYASPQAEGIARLELGDFDYAGRGYRVTSPRKPA | soluble |
| KPTAEVVPVNRGFHFQTNKVPSESDVFKHNYDLTFSLNFTNKSNDIYGTGWLFDWKGDEKALGIDGSFVPSITSNIDNSLLKDDQFTVYLATNLHVADALRNDQDYEPYKKDQNKQDFTENTKTEFFSLGKYLEGEQLKQYISKEENQSANQTDKALVSIQASNIPKTAYTATDFVDMNSYSYNNITTSLPGNYADFAVI | not soluble |
| MPDRLQLLEERLVVNKDRFKAGSVQIGKRIETRQETVSVPLQREEVVIERHAVTDGRAVEGAVLGEGHQTMSVDLEAERANISKQAYVTEEVSVGKRAVTETQQVTETVGREVLDVNQTGDVRLEHHHHHH | not soluble |
| MFRILTINPGSTSTKLSIFEDERMVKMQNFSHSPDELGRFQKILDQLEFREKIARQFVEETGYSLSSFSAFVSRGGLLDPIPGGVYLVDGLMIKTLKSGKNGEHASNLGAIIAHRFSSETGVPAYVVDPVVVDEMEDVARVSGHPNYQRKSIFHALNQKTVAKEVARMMNKRYEEMNLVVAHMGGGISIAAHRKGRVIDVNNALDGDGPFTPERSGTLPLTQLVDLCFSGKFTYEEMKKRIVGNGGLVAYLGTSDAREVVRRIKQGDEWAKRVYRAMAYQIAKWIGKMAAVLKGEVDFIVLTGGLAHEKEFLVPWITKRVSFIAPVLVFPGSNEEKALALSALRVLRGEEKPKNYSEESRRWRERYDSYLDGILRHHHHHH | soluble |
| FGSLTVFAGDSPYAPPAGGEAIGRLMERAMHDGLVAGGIVLVGNRHGTIYEHVFGKQSSLPDSPPVTSSTIFDIASLTKVIATTPAVMRLAEEGRLSLVDPLVRWFPEFAGHGKDDVLVVHLLTHTSGLDDFSLSSADPLQSAISGVAAQKLKGEPGNRFRYADINFILLGELVRRVTGSTLDRYAADAFLRPLGMKDTAFLPGPAIAERCAATLDGSGGPHFGTVQDPLARLLGGVAGHAGLFGTASDLALFCRMILGEGELNGRRVLEERTVRQMTAPYFSRGGKVTRGLGWDMASPFSSPRGEGFSEESFGHTGYSGGSIWIDPRTDTYVIFLS | not soluble |
| MAEVAPNSTLYINNLNEKIKIDELRKSLVAVFKQFGEIVSVMCFRTLKMRGQAHVIFKELPAASAAREALNGFPFYEKPMRIQFAREDSDVVAQEKGTYIKREPKYLSEKILKKPKSRKKENGGDGPAPPNKILFCTNLPDSATAEMLEIMFNQFAGLKDIRMVPNRPGIAFVEFDTDSLAIPARTTLNNFKISAEHTMRVDYAKK | soluble |
| MGSDKIHHHHHHMKKNVQIKGTKSGISIFLSDKASISELQQELSQLLADQKQNPYSGEKLEVQVQIGNRLFSEEEEREISTIIHNNSQMKISAFYSNVMSKDEAKKWKENDQIFSMATIIRSGQVVQVPGDFLLIGDVNPGGQIRSNGNVFVLGNIKGIIHAGFEGDENAVVAGKFLYPSQVRIAGKVYGFDSEDYKEVADTDLFSAFVNDAGEIVIDEIHKIRKIRPEISNFQGGR | not soluble |
| MNLSNHFLVAMPDMEDAFFSQSVVYICKHDEDGALGIAINKPSPITMDMIFSATGKNIPFRMQHDSVMMGGPVQVERGYVVHTPIGNWQSSIGVSDNIALTSSRDVIENISREGAVDKILISIGYSSWGKGQLERELADNAWLTVPADEHILFDIPYEHRYAAAFAKLGIDPLALFSGAGHALEHHHHHH | soluble |
| SLRIEHFETISCDAGWRNYYFLKVVTSDGIVGWSEYDESFGPPGLTAVIEQLGARLVGKSVYDHEEAYGRLAASLRPAPYGLSAEAIGAIENALLDAKAKSLGLPVYQLLGGKHRGSIPIYWSHCATWRISHPNLYPPAIVDLDGVKKAGEDARKSGISALKTNLFINENGKPRQWMAGFGSPYAPSLNVDKALLRNLRAHLEALRDGAGPDVDILVDLNFNARTEGYLSLINAIKDFDLFWVELDIYNPDAMAYIRQRSHAPIAACETLFGIRQFLPYFQAQSMDVAIVDAVWNGVWQAMKIASVADAFDVNIAPHNFYSHLSTMMNVHFAAAVPNLRVMEVDVDRLAWDDQLFTRTPEIVNGAIQVPDAPGWGCDPIEEALRAHPPQVRRSHLGL | soluble |
| SNCRSEVLEVSVEGRQVEEAMLAVLHTVLLHRSTGKFHYKKEGTYSIGTVGIQDVDCDFIDFTYVRVSSEELDRALRKVVGEFKDALRNSGGDGLGQMSLEFYQKKKSRWPFSDECIPWEVWTVKVHVVALATEQERQICREKVGEKLCEKIINIVEVMSRHEYLPKMPTQSEVDNVFDTGLRDVQPYLYKISFQITEALGTSVTTTMRRLIKDTLAL | soluble |
| MTTTTLTVPFRFDVVGSLLRPASLKKAHEQLAAGTITRDQELEIQHTEIKRVVAEQVKLGLKAVTDGEFSRSWWHLDFLWGLTGVGKYDYHQSYKFKGDHTRTDNAELIGKVAYNPDHPFFAAFEYLQSIVPAGVLAKQTIPSPTMLFRDNRSDNWTKFYDSWDAYLNDLAQAYHDTIQHFYDLGCRYIQLDDTTWAFLISKLNDPEADHAAYTKWATDAVTVINAALADLPSDLTVTTHICRGNFKSTYLFSGSYDVVAPYLGQLNYDGLFLEYDNERAGGFEALDQIWNHDDHKRIVLGLVTSKFPELEKTTVIKERVQAATTKVPLRNLALSTQCGFASTEEGNQLTEAQQWAKLALVIGTAKEVWSEALEHHHHHH | not soluble |
